The data set has as its target rGST (UniProt P08515 1-218). The data set can be described thus: EMSA; 1 and 3 μg rGST; Chemiluminescent EMSA Kit (Beyotime), buffer, salt and pH not stated; competitor 10 min then biotin probe 20 min at 25 °C; native 6% polyacrylamide gel. Conditions: protein: recombinant; chain copies: 2; blunt.

Data on 1 molecule can be found in paper PMC10070494, “WSSV exploits AMPK to activate mTORC2 signaling for proliferation by enhancing aerobic glycolysis”.

Chain of rGST (P08515 whole entry): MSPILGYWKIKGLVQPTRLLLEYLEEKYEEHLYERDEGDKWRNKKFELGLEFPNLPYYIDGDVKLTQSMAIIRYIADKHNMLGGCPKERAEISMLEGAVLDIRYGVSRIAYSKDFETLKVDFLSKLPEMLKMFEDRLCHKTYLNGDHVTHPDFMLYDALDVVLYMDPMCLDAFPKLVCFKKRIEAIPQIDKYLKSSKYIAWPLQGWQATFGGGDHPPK

B1: HK-WT probe (dsDNA)
DNA 1: CAAATGACTAGAACGTGCGACATTAGTGAA
DNA 2: TTCACTAATGTCGCACGTTCTAGTCATTTG
Regarding B1, the binding result was “no binding”.
